This note sets out measurements from patent publication US20240067690A1.

Where two headings read alike, the source gives them in different places.

Assay in all cases: cell-based or functional assay
In assay [1] the target is high affinity (IL2Ra/b/g) IL2 receptor on YT/STAT5-Luc/hIL2Ra reporter cells (human; human (human T/NK cell leukemia YT cell line)) (UniProt P01589).
The target of assay [2] is low affinity (IL2Rb/g) IL2 receptor on YT/STAT5-Luc/IL2Ra KO reporter cells (human (human T/NK cell leukemia YT cell line)) (UniProt P14784).
Assay [3] has as its target high affinity (IL2Ra/b/g) IL2 receptor on YT/STAT5-Luc/hIL2Ra reporter cells (human; human (human T/NK cell leukemia YT cell line)) (UniProt P01589). This is another data set of the same source.
The target of assay [4] is low affinity (IL2Rb/g) IL2 receptor on YT/STAT5-Luc/IL2Ra KO reporter cells (human (human T/NK cell leukemia YT cell line)) (UniProt P14784). The source holds these as a separate data set.

Sequence of UniProt P14784 (P14784 27-551, chain 1 of 2): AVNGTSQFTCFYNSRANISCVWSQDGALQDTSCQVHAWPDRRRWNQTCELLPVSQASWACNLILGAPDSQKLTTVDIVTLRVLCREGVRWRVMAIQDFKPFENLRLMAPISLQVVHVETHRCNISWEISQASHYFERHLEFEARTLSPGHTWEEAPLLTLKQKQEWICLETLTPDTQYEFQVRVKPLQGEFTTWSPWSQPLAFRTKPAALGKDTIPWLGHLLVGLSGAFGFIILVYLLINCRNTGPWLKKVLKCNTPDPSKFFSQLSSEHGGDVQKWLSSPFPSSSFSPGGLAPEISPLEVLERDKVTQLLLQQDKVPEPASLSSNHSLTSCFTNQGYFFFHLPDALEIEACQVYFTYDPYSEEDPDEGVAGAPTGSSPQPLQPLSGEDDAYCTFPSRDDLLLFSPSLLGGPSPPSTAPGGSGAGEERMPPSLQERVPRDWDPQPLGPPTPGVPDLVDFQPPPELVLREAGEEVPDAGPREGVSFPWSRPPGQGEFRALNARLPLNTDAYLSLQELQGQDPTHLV
Sequence of UniProt P14784 (P31785 23-369, chain 2 of 2, further chain): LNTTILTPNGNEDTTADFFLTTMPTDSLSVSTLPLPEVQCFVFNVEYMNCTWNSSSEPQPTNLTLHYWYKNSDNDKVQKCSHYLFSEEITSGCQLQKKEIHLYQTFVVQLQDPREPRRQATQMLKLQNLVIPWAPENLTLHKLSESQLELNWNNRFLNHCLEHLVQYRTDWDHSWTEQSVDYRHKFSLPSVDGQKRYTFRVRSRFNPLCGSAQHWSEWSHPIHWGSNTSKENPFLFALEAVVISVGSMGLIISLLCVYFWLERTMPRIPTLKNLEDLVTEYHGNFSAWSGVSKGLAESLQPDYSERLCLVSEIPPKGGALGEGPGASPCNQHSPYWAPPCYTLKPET
Sequence of UniProt P01589 (P01589 22-272, chain 1 of 3): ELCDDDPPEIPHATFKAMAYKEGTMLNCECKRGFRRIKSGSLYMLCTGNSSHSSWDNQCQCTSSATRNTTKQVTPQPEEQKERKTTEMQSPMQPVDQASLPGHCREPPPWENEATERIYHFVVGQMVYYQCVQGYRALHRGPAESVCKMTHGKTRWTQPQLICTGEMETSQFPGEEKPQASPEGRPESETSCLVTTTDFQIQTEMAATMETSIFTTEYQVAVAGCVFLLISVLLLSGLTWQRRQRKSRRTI
Sequence of UniProt P01589 (P14784 27-551, chain 2 of 3, further chain): as the sequence (P14784 27-551, chain 1 of 2) above
Sequence of UniProt P01589 (P31785 23-369, chain 3 of 3, further chain): as the sequence (P31785 23-369, chain 2 of 2, further chain) above

As for “IL2(E68C)-mmh (REGN7184), dimeric human IL-2 (E68C) with a C-terminal myc-myc-hexahistidine (mmh) tag (ligand)”, in assay [1], the EC50, STAT5-luciferase reporter assay, YT/Stat5-Luc/hIL2Ra cells (M (unit not given)) amounted to 5.63e-10 and the fold less potency than IL2-mmh (REGN7183), STAT5-luciferase reporter assay, YT/STAT5-Luc/hIL2Ra cells was 34 fold. Moreover, in assay [2], the EC50, STAT5-luciferase reporter assay, YT/Stat5-Luc/IL2Ra KO cells was found to be 0.847 nM.

As for IL2-Fc (REGN8189) (Fc fusion), in assay [2], the EC50, STAT5-luciferase reporter assay, YT/Stat5-Luc/IL2Ra KO cells stood at 0.542 nM.

For the molecule “IL2-Fc (REGN8189) (Fc fusion; in M (unit assumed))”, the EC50, STAT5-luciferase reporter assay, YT/Stat5-Luc/hIL2Ra cells (M (unit not given)) in assay [1] worked out at 1.69e-11.

Molecule “IL2-mmh (REGN7183), monomeric human IL-2 with a C-terminal myc-myc-hexahistidine (mmh) tag (ligand)” returned an EC50, STAT5-luciferase reporter assay, YT/Stat5-Luc/IL2Ra KO cells in assay [2] of 0.622 nM.

“IL2-mmh (REGN7183), monomeric human IL-2 with a C-terminal myc-myc-hexahistidine (mmh) tag (ligand; in M (unit assumed))” displayed an EC50, STAT5-luciferase reporter assay, YT/Stat5-Luc/hIL2Ra cells (M (unit not given)) in assay [1] of 1.65e-11.

B1: IL2(3m)-Fc (REGN8190) (Fc fusion)
chain: APTSSSTKKTQLQLEHLLLDLQMILNGINNYKNPKLTRMLTAKFAMPKKATELKHLQCLEEELKPLEEVLNGAQSKNFHLRPRDLISNINVIVLELKGSETTFMCEYADETATIVEFLNRWITFCQSIISTLTGGGGSESKYGPPCPPCPAPPVAGPSVFLFPPKPKDTLMISRTPEVTCVVVDVSQEDPEVQFNWYVDGVEVHNAKTKPREEQFNSTYRVVSVLTVLHQDWLNGKEYKCKVSNKGLPSSIEKTISKAKGQPREPQVYTLPPSQEEMTKNQVSLTCLVKGFYPSDIAVEWESNGQPENNYKTTPPVLDSDGSFFLYSRLTVDKSRWQEGNVFSCSVMHEALHNHYTQKSLSLSLGK
In assay [3], B1 gave an EC50, STAT5-luciferase reporter assay, YT/Stat5-Luc/hIL2Ra cells (M (unit not given)) of 5.17e-11 and a fold less potency than IL2-Fc (REGN8189), STAT5-luciferase reporter assay, YT/STAT5-Luc/hIL2Ra cells of 3 fold. The same molecule yielded an EC50, STAT5-luciferase reporter assay, YT/Stat5-Luc/IL2Ra KO cells in assay [4] of 0.628 nM.
